Assay results published in article PMC4358236 (The Journal of Biological Chemistry, 2015).

Target: the molecule itself
Assay: SEC-MALS

B1: VACV protein N1 with C-terminal His6 tag (natural protein)
chain: MRTLLIRYILWRNDNDQTYYNDNFKKLMLLDELVDDGDVCTLIKNMRMTLSDGPLLDRLNQPVNNIEDAKRMIAISAKVARDIGERSEIRWEESFTILFRMIETYFDDLMIDLYGEK
stoichiometry N: 2
